# Data from patent US20220195070A1 (Chugai, published 2022).
# Tests used:
# SG115 = molecular target: T1, SG115 (human, UniProt P01857 1-328 = IgG part); experiment: ELISA, OD405 against dose (ng/mL, log axis 1-100)
# T1 construct: also called modified IgG heavy chain constant region SG115
# SG115v1 = molecular target: T2, SG115v1 (human, UniProt P01857 1-328 = IgG part); experiment: ELISA, OD405 against dose (ng/mL, log axis 1-100)
# T2 construct: Carries the CH2 modifications of SG115 (Arg235, Arg236, Lys239, EU); Construct used in the ELISA is not described beyond the constant region; also called modified IgG heavy chain constant region SG115v1
# SG115v2 = molecular target: T3, SG115v2 (human, UniProt P01857 1-328 = IgG part); experiment: ELISA, OD405 against dose (ng/mL, log axis 1-100)
# T3 construct: Carries the CH3 modifications of SG115 (Leu428, Ala434, Arg438, Glu440, EU); Construct used in the ELISA is not described beyond the constant region; also called modified IgG heavy chain constant region SG115v2
# Glm = molecular target: T4, Glm (human, UniProt P01857 1-328 = IgG part); experiment: ELISA, OD405 against dose (ng/mL, log axis 1-100)
# T4 construct: Construct used in the ELISA is not described beyond the constant region; also called G1m
# G4d = molecular target: T5, G4d (human, UniProt P01861 1-325 = IgG part); experiment: ELISA, OD405 against dose (ng/mL, log axis 1-100)
# T5 construct: Construct used in the ELISA is not described beyond the constant region
# Anti-IL-8 Antibody = molecular target: T6, Anti-IL-8 Antibody; experiment: SPR (Biacore T200), 25 C, pH 7.4; SKA antibody captured by anti-rabbit IgG, Anti-IL-8 Antibody injected 0-800 nM
# T6 construct: also called anti-human IL-8 antibody; Fc-Mutated Antibody
# Protocol: To confirm the binding ability of Anti Fc-Mutation Antibodies that show selective binding to SG115v1, KD values of Anti Fc-Mutation Antibodies against Anti-IL-8 Antibody at pH 7.4 were determined at 25 degrees C. using Biacore T200 instrument (GE Healthcare). Sequence of Fc region of Anti-IL-8 Antibody has high similarity to that of Anti-hC5 Antibody.
# Anti-rabbit IgG (Abbexa) was immobilized onto FC1 and 2 of a CMS sensor chip using an amine coupling kit (GE Healthcare). For the immobilization of anti-rabbit IgG, HBS-EP+, pH7.4 (GE Healthcare) buffer was used as running buffer. After the immobilization, running buffer was changed to Phosphate pH7.4 buffer (50 mM phosphate buffer containing 150 mM NaCl and 0.05 w/v % P-20, pH 7.4). Each Anti Fc-Mutation Antibody was captured onto FC2 of the sensor chip by anti-rabbit IgG. The amount of Anti Fc-Mutation Antibody to be captured was adjusted so that the number of resonance units (RU) was 100. Anti-IL-8 Antibody was injected at 0, 100, 400, and 800 nM at 10 micro L/min. Sensor surface was regenerated after each cycle with 10 mM Glycine-HCl, pH2.0, which was injected at a flow rate of 30 micro L/min. KD values were obtained using Biacore T200 Evaluation software, version 2.0 (GE Healthcare).
# T6 sequence (constant, as listed by the source limits assumed): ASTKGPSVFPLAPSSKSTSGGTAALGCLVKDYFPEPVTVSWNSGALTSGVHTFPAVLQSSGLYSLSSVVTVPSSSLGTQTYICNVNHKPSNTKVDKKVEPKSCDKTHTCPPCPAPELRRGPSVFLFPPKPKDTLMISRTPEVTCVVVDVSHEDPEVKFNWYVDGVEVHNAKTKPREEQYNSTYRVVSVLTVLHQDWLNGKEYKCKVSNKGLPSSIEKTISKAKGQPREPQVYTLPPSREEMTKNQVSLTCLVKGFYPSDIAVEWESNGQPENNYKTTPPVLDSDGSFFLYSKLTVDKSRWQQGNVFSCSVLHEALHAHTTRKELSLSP
# T5 sequence (P01861 1-325 S108P limits assumed): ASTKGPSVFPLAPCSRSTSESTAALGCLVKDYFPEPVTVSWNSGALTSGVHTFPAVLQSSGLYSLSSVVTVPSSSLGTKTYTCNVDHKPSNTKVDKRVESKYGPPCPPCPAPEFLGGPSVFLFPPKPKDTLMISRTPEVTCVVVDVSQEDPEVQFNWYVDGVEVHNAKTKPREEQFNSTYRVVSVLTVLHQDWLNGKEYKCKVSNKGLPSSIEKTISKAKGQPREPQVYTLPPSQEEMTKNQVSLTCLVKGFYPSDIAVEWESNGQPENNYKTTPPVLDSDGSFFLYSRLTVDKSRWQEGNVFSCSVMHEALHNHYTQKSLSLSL
# T4 sequence (P01857 1-328 D239E/L241M limits assumed): as the sequence (constant, as listed by the source limits assumed) above, with R118L, R119G, G210A, S213A, S214P, L311M, A317N, T319Y, R321Q, E323S counted along it
# T3 sequence (P01857 other isoform, or with tags, fused parts or gaps limits assumed): as the sequence (constant, as listed by the source limits assumed) above, with R118L, R119G, T319Y counted along it
# T2 sequence (P01857 other isoform, or with tags, fused parts or gaps limits assumed): as the sequence (constant, as listed by the source limits assumed) above, with S122K, L311M, A317N, T319Y, R321Q, E323S counted along it
# T1 sequence (P01857 other isoform, or with tags, fused parts or gaps limits assumed): as the sequence (constant, as listed by the source limits assumed) above, with S122K, T319Y counted along it
Binder,binding result (SG115),binding result (SG115v1),binding result (SG115v2),binding result (Glm),binding result (G4d),Kd (Anti-IL-8 Antibody) [µM],koff (Anti-IL-8 Antibody) [s⁻¹],kon (Anti-IL-8 Antibody) [M⁻¹ s⁻¹]
"SKA0054 (antibody, V domains shown, Recombinant rabbit monoclonal from B-cell cloning, expressed in FreeStyle 293-F cells; the first screen used B-cell culture supernatant; also called Anti-SG115 Antibody; rabbit Anti Fc-Mutation Antibody) VH: QSLEESGGGLVQPEGSLTLTCTASGFSFSSSFWICWVRQAPGKGLEWLACIDAGSSDNTYYANWAKGRFTISKTSSTTVTLQMTSLTDADTATYFCARDRDAAGDAGYGYATSFNLWGPGTLVTVSS VL: AIDMTQTPSSVSAAVGGTVTINCQASESIYSNLAWYQQKPGQRPKLLIYLASTLASGVPSRFKGSGSGTEFTLTISDLECADAATYYCQSVYYDSRGDTFFWAFGGGTEVVVKG",binds,binds,no binding (tested: about 60 ng/mL),no binding (tested: about 60 ng/mL),no binding (tested: about 60 ng/mL),0.0968,0.000966,9980
"SKA0127 (antibody, V domains shown, Recombinant rabbit monoclonal from B-cell cloning, expressed in FreeStyle 293-F cells; the first screen used B-cell culture supernatant; also called Anti-SG115 Antibody; rabbit Anti Fc-Mutation Antibody) VH: QSVEESGGRLVTPGTPLTLTCTVSGIDLSTYAMTWVRQAPGKGLEYIGYINGGGSAYYASWVNGRFTISKTSTTADLKITSPTTEDTATYFCARGPVGSYHRIWGPGTLVTVSS VL: ALVMTQTPSSVSEPVGGTVTINCRASEDIESYLAWYQQKPGQPPKLLIYATSNLETGVPSRFKGSGSGTDYTLTISGVQCADAATYYCQGYYELSSIDNNAFGGGTEVVVKG",binds,binds,no binding (tested: about 60 ng/mL),no binding (tested: about 60 ng/mL),no binding (tested: about 60 ng/mL),0.0454,0.000804,17700
